T1: TNFR1 (Homo sapiens, UniProt P19438)
T1 chain: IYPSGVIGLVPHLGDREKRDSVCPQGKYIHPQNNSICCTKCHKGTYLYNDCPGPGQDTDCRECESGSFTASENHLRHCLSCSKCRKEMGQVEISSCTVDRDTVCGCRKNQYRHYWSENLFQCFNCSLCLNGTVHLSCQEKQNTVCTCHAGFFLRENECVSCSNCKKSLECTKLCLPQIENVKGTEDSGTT


Target: T1, TNFR1
Experiment: yeast display SC50

Row | Binder | apparent Kd (screen)
1 | E86V (designed binder) SMEEEVEKAAKEYEKKKKEAIEKHLEKLKAKDKEAAERFLKELEEAAKEYAKDEAKTMSEEEAKRRAKKYKEKVLLSELSEEEQKVIKEAEEKLVRTILKYVEEAAK | 1.05 nM
2 | L43I (designed binder) SMEEEVEKAAKEYEKKKKEAIEKHLEKLKAKDKEAAERFLKEIEEAAKEYAKDEAKTMSEEEAKRRAKKYKEKVLLSELSEEEQKEIKEAEEKLVRTILKYVEEAAK | 1.4 nM
3 | L75M (designed binder) SMEEEVEKAAKEYEKKKKEAIEKHLEKLKAKDKEAAERFLKELEEAAKEYAKDEAKTMSEEEAKRRAKKYKEKVMLSELSEEEQKEIKEAEEKLVRTILKYVEEAAK | 0.49 nM
4 | E82A (designed binder) SMEEEVEKAAKEYEKKKKEAIEKHLEKLKAKDKEAAERFLKELEEAAKEYAKDEAKTMSEEEAKRRAKKYKEKVLLSELSEAEQKEIKEAEEKLVRTILKYVEEAAK | 0.593 nM
5 | Y50N (designed binder) SMEEEVEKAAKEYEKKKKEAIEKHLEKLKAKDKEAAERFLKELEEAAKENAKDEAKTMSEEEAKRRAKKYKEKVLLSELSEEEQKEIKEAEEKLVRTILKYVEEAAK | 1.54 nM
6 | Y101R (designed binder) SMEEEVEKAAKEYEKKKKEAIEKHLEKLKAKDKEAAERFLKELEEAAKEYAKDEAKTMSEEEAKRRAKKYKEKVLLSELSEEEQKEIKEAEEKLVRTILKRVEEAAK | 0.446 nM
7 | S1M (designed binder) MMEEEVEKAAKEYEKKKKEAIEKHLEKLKAKDKEAAERFLKELEEAAKEYAKDEAKTMSEEEAKRRAKKYKEKVLLSELSEEEQKEIKEAEEKLVRTILKYVEEAAK | 2.25 nM
8 | K100L (designed binder) SMEEEVEKAAKEYEKKKKEAIEKHLEKLKAKDKEAAERFLKELEEAAKEYAKDEAKTMSEEEAKRRAKKYKEKVLLSELSEEEQKEIKEAEEKLVRTILLYVEEAAK | 1.69 nM
9 | A63L (designed binder) SMEEEVEKAAKEYEKKKKEAIEKHLEKLKAKDKEAAERFLKELEEAAKEYAKDEAKTMSEEELKRRAKKYKEKVLLSELSEEEQKEIKEAEEKLVRTILKYVEEAAK | 9.41 nM
10 | E22G (designed binder) SMEEEVEKAAKEYEKKKKEAIGKHLEKLKAKDKEAAERFLKELEEAAKEYAKDEAKTMSEEEAKRRAKKYKEKVLLSELSEEEQKEIKEAEEKLVRTILKYVEEAAK | 1.05 nM
11 | L43W (designed binder) SMEEEVEKAAKEYEKKKKEAIEKHLEKLKAKDKEAAERFLKEWEEAAKEYAKDEAKTMSEEEAKRRAKKYKEKVLLSELSEEEQKEIKEAEEKLVRTILKYVEEAAK | 2.73 nM
12 | I87Q (designed binder) SMEEEVEKAAKEYEKKKKEAIEKHLEKLKAKDKEAAERFLKELEEAAKEYAKDEAKTMSEEEAKRRAKKYKEKVLLSELSEEEQKEQKEAEEKLVRTILKYVEEAAK | 3 nM
13 | V102P (designed binder) SMEEEVEKAAKEYEKKKKEAIEKHLEKLKAKDKEAAERFLKELEEAAKEYAKDEAKTMSEEEAKRRAKKYKEKVLLSELSEEEQKEIKEAEEKLVRTILKYPEEAAK | 0.49 nM
14 | K29C (designed binder) SMEEEVEKAAKEYEKKKKEAIEKHLEKLCAKDKEAAERFLKELEEAAKEYAKDEAKTMSEEEAKRRAKKYKEKVLLSELSEEEQKEIKEAEEKLVRTILKYVEEAAK | 1.4 nM
15 | E81P (designed binder) SMEEEVEKAAKEYEKKKKEAIEKHLEKLKAKDKEAAERFLKELEEAAKEYAKDEAKTMSEEEAKRRAKKYKEKVLLSELSPEEQKEIKEAEEKLVRTILKYVEEAAK | 0.49 nM
16 | F39S (designed binder) SMEEEVEKAAKEYEKKKKEAIEKHLEKLKAKDKEAAERSLKELEEAAKEYAKDEAKTMSEEEAKRRAKKYKEKVLLSELSEEEQKEIKEAEEKLVRTILKYVEEAAK | 7.07 nM
17 | S1D (designed binder) DMEEEVEKAAKEYEKKKKEAIEKHLEKLKAKDKEAAERFLKELEEAAKEYAKDEAKTMSEEEAKRRAKKYKEKVLLSELSEEEQKEIKEAEEKLVRTILKYVEEAAK | 0.446 nM
18 | K15R (designed binder) SMEEEVEKAAKEYERKKKEAIEKHLEKLKAKDKEAAERFLKELEEAAKEYAKDEAKTMSEEEAKRRAKKYKEKVLLSELSEEEQKEIKEAEEKLVRTILKYVEEAAK | 0.593 nM
19 | E83Y (designed binder) SMEEEVEKAAKEYEKKKKEAIEKHLEKLKAKDKEAAERFLKELEEAAKEYAKDEAKTMSEEEAKRRAKKYKEKVLLSELSEEYQKEIKEAEEKLVRTILKYVEEAAK | 2.05 nM
20 | K33E (designed binder) SMEEEVEKAAKEYEKKKKEAIEKHLEKLKAKDEEAAERFLKELEEAAKEYAKDEAKTMSEEEAKRRAKKYKEKVLLSELSEEEQKEIKEAEEKLVRTILKYVEEAAK | 0.539 nM
21 | A67G (designed binder) SMEEEVEKAAKEYEKKKKEAIEKHLEKLKAKDKEAAERFLKELEEAAKEYAKDEAKTMSEEEAKRRGKKYKEKVLLSELSEEEQKEIKEAEEKLVRTILKYVEEAAK | 0.49 nM
22 | S59K (designed binder) SMEEEVEKAAKEYEKKKKEAIEKHLEKLKAKDKEAAERFLKELEEAAKEYAKDEAKTMKEEEAKRRAKKYKEKVLLSELSEEEQKEIKEAEEKLVRTILKYVEEAAK | 1.05 nM
23 | E89W (designed binder) SMEEEVEKAAKEYEKKKKEAIEKHLEKLKAKDKEAAERFLKELEEAAKEYAKDEAKTMSEEEAKRRAKKYKEKVLLSELSEEEQKEIKWAEEKLVRTILKYVEEAAK | 1.69 nM
24 | A46S (designed binder) SMEEEVEKAAKEYEKKKKEAIEKHLEKLKAKDKEAAERFLKELEESAKEYAKDEAKTMSEEEAKRRAKKYKEKVLLSELSEEEQKEIKEAEEKLVRTILKYVEEAAK | 0.49 nM
25 | K17A (designed binder) SMEEEVEKAAKEYEKKAKEAIEKHLEKLKAKDKEAAERFLKELEEAAKEYAKDEAKTMSEEEAKRRAKKYKEKVLLSELSEEEQKEIKEAEEKLVRTILKYVEEAAK | 1.86 nM
26 | A67K (designed binder) SMEEEVEKAAKEYEKKKKEAIEKHLEKLKAKDKEAAERFLKELEEAAKEYAKDEAKTMSEEEAKRRKKKYKEKVLLSELSEEEQKEIKEAEEKLVRTILKYVEEAAK | 1.54 nM

Source: paper PMC12416549 (2024)
